# In US20250387492A1, “HSP90-TARGETING CONJUGATES AND FORMULATIONS THEREOF” (Fusion Pharmaceuticals Inc., priority 2018, published 2025):
# Values joined by “and” are separate entries in the source; they are usually repeats but may differ in a detail not shown here. Equal entries are not always repeated. Where two headings read alike, the source gives them in different places.
# What was measured:
# [1] = system: NCI-H460 tumor-bearing mice; experiment: H460 mouse tumor and plasma pharmacokinetics; format: in vivo; conditions: 25 mg/kg IV, individual animals
# Method: (§1) Conjugate accumulation at 24 and 48 h in tumor and plasma of NCI-H460 tumor-bearing mice (lung cancer). Conjugate 1 was dosed at 25 mg/kg intravenously.
# [2] = H460 mouse tumor and plasma pharmacokinetics; format: in vivo; conditions: mouse, 25 mg/kg IV, mean of 3 animals
# Method: as §1
# [3] = Lu levels in tumor, kidney and liver of mice at 0.5 mg/kg
# [4] = Biodistribution in healthy rat tissues; format: in vivo; conditions: 5 mg/kg, healthy rats; for level at time molar: rat
# Method: Biodistributions of the conjugates were studied. Conjugate 1 was dosed at 5 mg/kg to healthy rats. The amount of Conjugate 1 and lutetium from Conjugate 1 in rat spleen, kidney, brain, liver and bone marrow was measured.
# [5] = system: NCI-H460 tumor-bearing mice; experiment: H460 mouse tumor and plasma pharmacokinetics; format: in vivo; conditions: 25 mg/kg IV; 1 h; individual animals
# [6] = H460 mouse tumor and plasma pharmacokinetics; format: in vivo; conditions: mouse, 25 mg/kg IV, mean of 3 animals; remark: listed apart in the source
# H69 tumor model mice = experiment: Biodistribution in H69 tumor model; conditions: 5 mg/kg; 24 h; H69
# Description: (§2) In other studies, biodistribution of the conjugates was studied with H460 and H69 tumor models.
# [7] = Biodistribution in H69 tumor model; conditions: mouse, in vivo, 5 mg/kg, Tumor Levels, 24 h, H69, 5 mg/kg; H69
# Description: as §2
# H460 tumor model mice = experiment: Biodistribution in H460 tumor model; conditions: 5 mg/kg
# Description: as §2
# [8] = Biodistribution in H460 tumor model; conditions: mouse, in vivo, 5 mg/kg, Tumor Levels, 24 h
# Description: as §2
# [9] = Plasma profile in male SD rats; format: in vivo, rat; conditions: 5 mg/kg IV; for Vd: male, SD, iv, 5 mg/kg
# Method: Plasma profile for Conjugate 1 at 5 mg/kg dose (via IV) in male SD rats was obtained. Plasma profile for lutetium from Conjugate 1 was also measured.
# [10] = plasma, read-out: Compound 1 Conc. in NCI-H460 Mouse Plasma, Mean
# [11] = tumor, read-out: Compound 1 Conc. in NCI-H460 Mouse Tumor, Mean
# [12] = H460 and H69 tumor models, Conjugate 1 vs Conjugate 2
smiles,measurement,setting,value
CCNC(=O)c1nnc(-c2cc(C(C)C)c(O)cc2O)n1-c1ccc(CN2CCN(C(=O)CN3CCN4CCN5CCN(CC3)CC(=O)[O][Lu]([O]C(=O)C5)[O]C(=O)C4)CC2)cc1 [Conjugate 1],Compound 1 Conc. in NCI-H460 Mouse Plasma,[1]; 1 h,1.07 µM and 1.04 µM and 7.98 µM
same,Compound 1 Conc. in NCI-H460 Mouse Plasma,[1]; 24 h,0.020 μM (2×) and 0.046 μM
same,Compound 1 Conc. in NCI-H460 Mouse Tumor,[1]; 24 h,3.85 µM and 4.01 µM and 4.26 µM
same,Compound 1 Conc. in NCI-H460 Mouse Plasma,[1]; 48 h,0.016 µM and 0.013 µM and 0.020 µM
same,Compound 1 Conc. in NCI-H460 Mouse Tumor,[1]; 48 h,1.95 µM and 3.09 µM and 3.10 µM
same,level at time molar at 24 h,[2]; [10],29 nM
same,level at time molar at 48 h,[2]; [10],16 nM
same,level at time molar at 24 h,[2]; [11],4040 nM
same,level at time molar at 48 h,[2]; [11],2710 nM
same,Average Lu in Liver,[3],23.85 % ID/g
same,Average Lu in kidney,[3],1.00 % ID/g
same,Average Lu in tumor,[3],1.28 % ID/g
same,"Conjugate 1 Conc., Bone marrow",[4]; individual animals A1-A3,0.063 µM and 0.664 µM and 0.838 µM
same,"Conjugate 1 Conc., Kidney",[4]; individual animals A1-A3,7.75 µM and 7.50 µM and 8.05 µM
same,"Conjugate 1 Conc., Liver",[4]; individual animals A1-A3,1.50 µM and 2.46 µM and 3.33 µM
same,"Conjugate 1 Conc., Spleen",[4]; individual animals A1-A3,0.148 µM and 0.134 µM and 0.232 µM
same,"Lu from Conjugate 1 Conc., Bone marrow",[4]; individual animals A1-A3,0.030 µM and 0.021 µM and 0.022 µM
same,"Lu from Conjugate 1 Conc., Brain",[4]; individual animals A1-A3,<BLQ
same,"Lu from Conjugate 1 Conc., Kidney",[4]; individual animals A1-A3,3.93 µM and 4.14 µM and 4.44 µM
same,"Lu from Conjugate 1 Conc., Liver",[4]; individual animals A1-A3,2.34 µM and 2.25 µM and 3.47 µM
same,"Lu from Conjugate 1 Conc., Spleen",[4]; individual animals A1-A3,0.154 µM and 0.163 µM and 0.198 µM
same,"Lu from Conjugate 1 Conc., Bone marrow, Mean",[4]; mean,0.024 µM
same,"Lu from Conjugate 1 Conc., Brain, Mean",[4]; mean,<BLQ
same,"Lu from Conjugate 1 Conc., Kidney, Mean",[4]; mean,4.17 µM
same,"Lu from Conjugate 1 Conc., Spleen, Mean",[4]; mean,0.172 µM
same,level at time molar,"[4]; bone marrow, mean, read-out: Conjugate 1 Conc., Bone marrow, Mean",522 nM
same,level at time molar,"[4]; brain, individual animals A1-A3, read-out: Conjugate 1 Conc., Brain",37 nM
same,level at time molar,"[4]; brain, mean, read-out: Conjugate 1 Conc., Brain, Mean",49 nM
same,level at time molar,"[4]; kidney, mean, read-out: Conjugate 1 Conc., Kidney, Mean",7770 nM
same,level at time molar,"[4]; liver, mean, read-out: Conjugate 1 Conc., Liver, Mean",2430 nM
same,level at time molar,"[4]; spleen, mean, read-out: Conjugate 1 Conc., Spleen, Mean",171 nM
same,Compound 1 Conc. in NCI-H460 Mouse Tumor,[5],9.30 µM and 7.05 µM and 11.1 µM
same,level at time molar at 1 h,[6]; [10],3360 nM
same,level at time molar at 1 h,[6]; [11],9130 nM
same,"Tumor:liver ratio, 24 h, H69",H69 tumor model mice,0.18
same,level at time molar at 24 h,[7],1610 nM
same,"Tumor:liver ratio, 24 h, H460 (1)","H460 tumor model mice; 24 h, H460 study (1)",0.16
same,"Tumor:kidney ratio, 24 h, H460 (2)","H460 tumor model mice; 24 h, H460 study (2)",1.8
same,"Tumor:liver ratio, 24 h, H460 (2)","H460 tumor model mice; 24 h, H460 study (2)",1.2
same,Clearance from plasma,H460 tumor model mice; H460 and H69 tumor models,clear rapidly from plasma
same,Tumor retention (comparison),H460 tumor model mice; [12],similar
same,Tumor uptake (comparison),H460 tumor model mice; [12],noticeably higher than Conjugate 2
same,tumor:kidney ratio,H460 tumor model mice; H460 tumor model,around 2
same,tumor:liver ratios,"H460 tumor model mice; at 24 h, across H460 and H69 tumor models",0.1-1
same,level at time molar at 24 h,"[8]; H460 (1), H460 study (1)",1740 nM
same,level at time molar at 24 h,"[8]; H460 (2), H460 study (2)",2490 nM
same,t1/2,[9]; analyte Conjugate 1,1.45 H
same,t1/2,[9]; analyte Lu from Conjugate 1,0.56 H
same,Vd,"[9]; rat, analyte Conjugate 1, read-out: Vss_obs",0.483 L/kg
same,Vd,"[9]; rat, analyte Conjugate 1, read-out: Vz_obs",1.44 L/kg
same,AUC(0-t),"[9]; rat, analyte Conjugate 1",7.31 µM·h
same,Cmax,"[9]; rat, analyte Conjugate 1",14200 nM
same,AUC(0-inf),"[9]; rat, analyte Conjugate 1, read-out: AUC 0-inf_obs",7.34 µM·h
same,clearance,"[9]; rat, analyte Conjugate 1, read-out: Cl-obs",11.1 mL/min/kg
